Assay results: US11370837 (dated 2022)
Changes are numbered by the printed parent chain.

T1: human TIGIT-his (human, UniProt Q495A1)
T1 chain: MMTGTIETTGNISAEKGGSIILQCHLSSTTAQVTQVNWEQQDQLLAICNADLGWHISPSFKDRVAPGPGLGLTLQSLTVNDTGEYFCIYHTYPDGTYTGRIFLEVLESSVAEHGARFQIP

T2: mouse TIGIT-his (mouse, UniProt P86176)
T2 chain: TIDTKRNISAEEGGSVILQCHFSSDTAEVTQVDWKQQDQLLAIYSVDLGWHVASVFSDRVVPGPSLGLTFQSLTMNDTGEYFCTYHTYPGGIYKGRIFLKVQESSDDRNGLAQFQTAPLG

T3: human TIGIT-Fc (human, UniProt Q495A1)
T3 chain: T1 chain

T4: human TIGIT on CHO cells (human, UniProt Q495A1)
T4 chain: T1 chain

B1: ADI-30293 (antibody, V domains shown)
VH: EVQLVESGGGLVQPGGSLRLSCAASGFTFSSYSMNWVRQAPGKGLEWVSYISSSGTINYADSVKGRFTISRDNAKNSLYLQMNSLRAEDTAVYYCARHRIADSPSRAFDIWGQGTMVTVSS
VL: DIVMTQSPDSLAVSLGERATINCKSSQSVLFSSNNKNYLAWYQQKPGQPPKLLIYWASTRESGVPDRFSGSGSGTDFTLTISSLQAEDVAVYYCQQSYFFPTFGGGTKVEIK
B2: ADI-30296 Fab (antibody, V domains shown)
VH: B1 VH with F29I, S30G, S31G, G55S, N58H, A101G, D102R
VL: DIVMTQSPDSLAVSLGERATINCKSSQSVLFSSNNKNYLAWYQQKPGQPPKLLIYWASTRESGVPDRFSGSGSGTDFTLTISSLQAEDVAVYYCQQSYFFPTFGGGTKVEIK
B3: ADI-30311 Fab (antibody, V domains shown)
VH: QLQLQESGPGLVKPSETLSLTCTVSGGSIASSVYYWGWIRQPPGKGLEWIGSIYYSGSTWYNPSLKSRVTISVDTSKNQFSLKLSSVTAADTAVYYCAREAGRTGTGLLFDYWGQGTLVTVSS
VL: DIQMTQSPSTLSASVGDRVTITCRASQSISSWLAWYQQKPGKAPKLLIYKASSLESGVPSRFSGSGSGTEFTLTISSLQPDDFATYYCQQYGILPRTFGGGTKVEIK
B4: ADI-30302 Fab (antibody, V domains shown)
VH: QLQLQESGPGLVKPSETLSLTCTVSGGSIGSSQYYWGWIRQPPGKGLEWIGSIYRSGGTYYNPSLKSRVTISVDTSKNQFSLKLSSVTAADTAVYYCARDGLYHTPEYFQHWGQGTLVTVSS
VL: EIVLTQSPATLSLSPGERATLSCRASQSVSSYLAWYQQKPGQAPRLLIYDASNRATGIPARFSGSGSGTDFTLTISSLEPEDFAVYYCQQRFAFPYTFGGGTKVEIK
B5: ADI-30263 Fab (antibody, V domains shown)
VH: QVQLVQSGAEVKKPGASVKVSCKASGYTFLSYYMNWVRQAPGQGLEWMGIIDPSGGRTSYAQKFQGRVTMTRDTSTSTVYMELSSLRSEDTAVYYCARARYPSSWPYGTDVWGQGTTVTVSS
VL: DIQMTQSPSSLSASVGDRVTITCRASQSINSYLNWYQQKPGKAPKLLIYAASSLQSGVPSRFSGSGSGTDFTLTISSLQPEDFATYYCQQSLLTPFTFGGGTKVEIK
B6: ADI-30267 Fab (antibody, V domains shown)
VH: B5 VH with L30R, N35S, Y60F, S103E, T109M
VL: B5 VL
B7: ADI-27238 Fab (antibody, V domains shown)
VH: B5 VH with L30T, N35S, D52N, R57S, T109M
VL: B5 VL
B8: ADI-30288 Fab (antibody, V domains shown)
VH: EVQLLESGGGLVQPGGSLRLSCAASGFTFGPYGMSWVRQAPGKGLEWVSAISGSGASTWHADSVKGRFTISRDNSKNTLYLQMNSLRAEDTAVYYCAKDPGTDSTGYYYIWRYWGQGTLVTVSS
VL: EIVMTQSPATLSVSPGERATLSCRASQSVSSNLAWYQQKPGQAPRLLIYSASTRATGIPARFSGSGSGTEFTLTISSLQSEDFAVYYCQQYVPHPPFTFGGGTKVEIK
B9: ADI-30283 Fab (antibody, V domains shown)
VH: B8 VH with G30S, A50S, A56G, S57R, W59Y, H60Y, T105S
VL: B8 VL
B10: ADI-27297 Fab (antibody, V domains shown)
VH: QVQLVQSGAEVKKPGASVKVSCKASGYTFTSYYMHWVRQAPGQGLEWMGIINPSGGSTSYAQKFQGRVTMTRDTSTSTVYMELSSLRSEDTAVYYCARDHDIAAAGRLADYWGQGTLVTVSS
VL: DIQMTQSPSSVSASVGDRVTITCRASQGISSWLAWYQQKPGKAPKLLISAASSLQSGVPSRFSGSGSGTDFTLTISSLQPEDFATYYCQQAVILPITFGGGTKVEIK
B11: ADI-30296 (antibody, V domains shown)
VH: B1 VH with F29I, S30G, S31G, G55S, N58H, A101G, D102R
VL: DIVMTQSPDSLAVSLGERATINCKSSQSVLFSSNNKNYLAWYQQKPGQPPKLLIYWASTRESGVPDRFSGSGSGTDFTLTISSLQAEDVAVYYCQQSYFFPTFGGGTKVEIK
B12: ADI-30311 (antibody, V domains shown)
VH: B3 VH
VL: B3 VL
B13: ADI-27301 (antibody, V domains shown)
VH: B3 VH with A30S, V33S, W60Y, T104G, G105T
VL: B3 VL
B14: ADI-30302 (antibody, V domains shown)
VH: B4 VH
VL: B4 VL
B15: ADI-27243 (antibody, V domains shown)
VH: B4 VH with G30S, Q33R, R55Y, G58S
VL: B4 VL
B16: ADI-30267 (antibody, V domains shown)
VH: B5 VH with L30R, N35S, Y60F, S103E, T109M
VL: B5 VL
B17: ADI-27238 (antibody, V domains shown)
VH: B5 VH with L30T, N35S, D52N, R57S, T109M
VL: B5 VL
B18: ADI-27291 (antibody, V domains shown)
VH: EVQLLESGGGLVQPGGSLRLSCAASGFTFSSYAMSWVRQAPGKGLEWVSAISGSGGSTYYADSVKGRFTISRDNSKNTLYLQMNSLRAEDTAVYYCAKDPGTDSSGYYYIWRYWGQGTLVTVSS
VL: B8 VL
B19: ADI-27297 (antibody, V domains shown)
VH: B10 VH
VL: B10 VL
B20: ADI-27278 (antibody, V domains shown)
VH: EVQLVESGGGLVQPGGSLRLSCAASGFTFSSYSMNWVRQAPGKGLEWVSYISGSSSTIYYADSVKGRFTISRDNAKNSLYLQMNSLRAEDTAVYYCARHRIADSPSRAFDIWGQGTMVTVSS
VL: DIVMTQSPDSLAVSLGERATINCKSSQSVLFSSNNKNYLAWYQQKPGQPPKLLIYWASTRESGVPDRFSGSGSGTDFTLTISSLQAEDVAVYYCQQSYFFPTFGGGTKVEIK

Molecular target: T1, human TIGIT-his
Assay: BLI

Binder	Kd
B1	0.789 nM

Molecular target: T2, mouse TIGIT-his
Assay: BLI

Binder	Kd
B1	13 nM

Molecular target: T3, human TIGIT-Fc
Assay: BLI

Binder	Kd
B2	2.43 nM
B3	0.807 nM
B4	0.329 nM
B5	0.795 nM
B6	1.66 nM
B7	13.8 nM
B8	0.547 nM
B9	0.553 nM
B10	32.1 nM

The binders below were run against monkey TIGIT-his (monkey) (assay: BLI).
monkey TIGIT-his (monkey), sequence (Q495A1 other isoform, or with tags, fused parts or gaps): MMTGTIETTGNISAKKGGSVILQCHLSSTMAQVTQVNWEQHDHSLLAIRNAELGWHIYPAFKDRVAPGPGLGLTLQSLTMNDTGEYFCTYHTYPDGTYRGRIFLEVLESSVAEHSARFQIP

Binder	Kd
B1	34.9 nM

Molecular target: T4, human TIGIT on CHO cells
Assay: FACS

Binder	EC50
B1	0.9 nM
B11	0.371 nM
B12	0.757 nM
B13	0.899 nM
B14	0.326 nM
B15	0.587 nM
B16	0.74 nM
B17	0.751 nM
B18	0.852 nM
B19	0.496 nM
B20	0.968 nM

Molecular target: T4, human TIGIT on CHO cells
Assay: FACS, CHO-expressed antibody

Binder	EC50
B1	0.229 nM

Molecular target: T4, human TIGIT on CHO cells
Assay: competition, CD155 blocking FACS

Binder	IC50
B1	0.859 nM
B11	0.278 nM
B12	0.531 nM
B13	0.641 nM
B14	0.281 nM
B15	0.819 nM
B16	0.278 nM
B17	0.418 nM
B18	1.61 nM
B19	0.603 nM
B20	0.586 nM

Molecular target: T4, human TIGIT on CHO cells
Assay: competition, CD155 blocking FACS
Remark: another data set of the same source

Binder	IC50
B1	0.251 nM
